Results: PMC7486399

Biological target: angiotensin-converting enzyme 2 (ACE2) protein, purified (UniProt Q9BYF1)
Assay: AFM single-molecule force spectroscopy (FD-curve-based AFM)

With “SARS-CoV-2 spike glycoprotein receptor-binding domain (from UniProt P0DTC2 319-541) (domain or fragment)” the Kd was 120 nM, the bond lifetime τ was 111 ms and the interaction time was 0.25 ms.
